The text below walks through data of publication PMC6435475, “Structural and functional characterisation of the entry point to pyocyanin biosynthesis in Pseudomonas aeruginosa defines a new 3-deoxy-D-arabino-heptulosonate 7-phosphate synthase subclass” (Bioscience Reports, 2018).

The test system of data set [1] is C=C(OP(=O)(O)O)C(=O)O. Put plainly: purified protein. The following applies: E4P 150 μM, Co2+ 100 μM, pH 7.5, 37 °C.
Source text: (§1) initial-rate UV-Vis spectrophotometric assay on PaeDAH7PS^PA1901 (type II DAH7PS, phzC)
Data set [2] has as its system O=C[C@H](O)[C@H](O)COP(=O)(O)O. The experiment in a line: purified protein. Particulars: PEP 150 μM, Co2+ 100 μM, pH 7.5, 37 °C.
Source text: as §1
Data set [3] deals with the molecule itself. The experiment in a line: crystal structure; microbatch crystallisation, protein 3-5 mg/ml (67-112 uM), 0.2 M sodium fluoride, 1 mM cobalt chloride, 1 mM PEP, 18% PEG 3350, 278 K; space group C222(1), two chains in the asymmetric unit, tetramer by a two-fold crystallographic symmetry operation.
Data set [4] deals with the molecule itself. The experiment in a line: SEC-SAXS; injection concentration 8.0 mg/ml (180 uM; also 5.0 mg/ml), Superdex S200, 50 mM bis-tris propane pH 7.5, 100 uM cobalt chloride, 200 uM PEP, 5% glycerol, 293 K; elution peak deconvoluted into two Gaussian components (peaks A and B). (In general: SEC sorts molecules by how far they enter the pores of the column.)

As to “PaeDAH7PS^PA1901 (type II DAH7PS, phzC) (Pseudomonas aeruginosa PAO1)”, in data set [1], the Km (as a rule, the concentration of substrate that gives half-maximal velocity) turned out to be 17 ± 1 µM; the kcat (commonly the number of substrate molecules converted per active site and unit of time at saturation) was found to be 19.8 ± 0.4 s⁻¹; the kcat/Km – broadly, the second-order rate constant that governs catalysis at low substrate concentration – is 1.16e+06 ± 100000 M⁻¹ s⁻¹. Further, in data set [2], the Km came to 16 ± 3 µM, the kcat worked out at 19.8 ± 0.4 s⁻¹ and the kcat/Km worked out at 1.24e+06 ± 150000 M⁻¹ s⁻¹.

B1: PaeDAH7PS^PA1901 (3-deoxy-D-arabino-heptulosonate 7-phosphate synthase encoded by phzC, Pseudomonas aeruginosa PAO1) (enzyme)
chain: MDDLLQRVRRCEALQQPEWGDPSRLRDVQAYLRGSPALIRAGDILALRATLARVARGEALVVQCGDCAEDMDDHHAENVARKAAVLELLAGALRLAGRRPVIRVGRIAGQYAKPRSKPHEQVGEQTLPVYRGDMVNGREAHAEQRRADPQRILKGYAAARNIMRHLGWDAASGQEANASPVWTSHEMLLLDYELSMLREDEQRRVYLGSTHWPWIGERTRQVDGAHVALLAEVLNPVACKVGPEIGRDQLLALCERLDPRREPGRLTLIARMGAQKVGERLPPLVEAVRAAGHPVIWLSDPMHGNTIVAPCGNKTRLVRSIAEEVAAFRLAVSGSGGVAAGLHLETTPDDVTECVADSSGLHQVSRHYTSLCDPRLNPWQALSAVMAWSGAEAIPSATFPLETVA
notes: 3-deoxy-D-arabino-heptulosonate 7-phosphate synthase (type II DAH7PS) encoded by phzC, ORF PA1901 (duplicated as PA4212), Pseudomonas aeruginosa PAO1; the ORF was amplified from gDNA; residues up to 405 are named; measured mass of a single chain 44470 Da (calculated 44468 Da); Homodimer in solution at low concentration (AUC, SEC-SAXS); homotetramer in the crystal and at high concentration in …
B1: the stoichiometry N (as a rule, the number of molecules, sites or subunits per partner or assembly) in data set [3] worked out at 4; in data set [4], 2.
